# Measured values from US20240309062A1.
# Biological target: T1, mouse IFNAR2 (mouse) (UniProt O35664)
# T1 sequence: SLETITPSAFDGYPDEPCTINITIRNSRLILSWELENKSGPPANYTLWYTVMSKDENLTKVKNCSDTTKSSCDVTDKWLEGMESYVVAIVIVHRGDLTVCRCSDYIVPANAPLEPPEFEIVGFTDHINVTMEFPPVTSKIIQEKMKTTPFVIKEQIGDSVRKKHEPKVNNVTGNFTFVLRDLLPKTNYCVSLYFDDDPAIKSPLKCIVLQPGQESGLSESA
# Test: AlphaSeq
row,apparent Kd (pooled screen),Substance
1,545 nM,IFNA2b_M44N_A168S (from UniProt P01563 24-188) (ligand)
2,811 nM,IFNA2b_M44N_L184E (from UniProt P01563 24-188) (ligand)
3,18100 nM,IFNA2b_L49P_R172N (from UniProt P01563 24-188) (ligand)
4,16400 nM,IFNA2b_L49P_V165E (from UniProt P01563 24-188) (ligand)
5,65 nM,IFNA2b_L49P_K156T (from UniProt P01563 24-188) (ligand)
6,77 nM,IFNA2b_L49P_R167K (from UniProt P01563 24-188) (ligand)
7,2260 nM,IFNA2b_L49P_R172G (from UniProt P01563 24-188) (ligand)
8,461 nM,IFNA2b_L49P_A168K (from UniProt P01563 24-188) (ligand)
9,65 nM,IFNA2b_L49P_S159H (from UniProt P01563 24-188) (ligand)
10,697 nM,IFNA2b_L49P_K135I (from UniProt P01563 24-188) (ligand)
11,18600 nM,IFNA2b_L49P_V165Q (from UniProt P01563 24-188) (ligand)
12,75 nM,IFNA2b_L49P_S183Y (from UniProt P01563 24-188) (ligand)
13,2200 nM,IFNA2b_L49P_R167A (from UniProt P01563 24-188) (ligand)
14,4900 nM,IFNA2b_M44N_R167I (from UniProt P01563 24-188) (ligand)
15,566 nM,IFNA2b_L49P_R172V (from UniProt P01563 24-188) (ligand)
16,12300 nM,IFNA2b_M44N_S177D (from UniProt P01563 24-188) (ligand)
17,8770 nM,IFNA2b_M44N_R172W (from UniProt P01563 24-188) (ligand)
18,26100 nM,IFNA2b_L49P_V165D (from UniProt P01563 24-188) (ligand)
19,942 nM,IFNA2b_M44N_S138W (from UniProt P01563 24-188) (ligand)
20,321 nM,IFNA2b_L49P_A168Q (from UniProt P01563 24-188) (ligand)
21,5820 nM,IFNA2b_M44N_G125Y (from UniProt P01563 24-188) (ligand)
22,24400 nM,IFNA2b_M44N_K156E (from UniProt P01563 24-188) (ligand)
23,415 nM,IFNA2b_M44N_K187E (from UniProt P01563 24-188) (ligand)

# Further lines, the substance ahead of its results:
row,Substance,apparent Kd (pooled screen)
1,IFNA2b_L49P_R167W (from UniProt P01563 24-188) (ligand),6440 nM
2,IFNA2b_M44N_L176R (from UniProt P01563 24-188) (ligand),541 nM
3,IFNA2b_M44N_R167T (from UniProt P01563 24-188) (ligand),7010 nM
4,IFNA2b_L49P_K187R (from UniProt P01563 24-188) (ligand),415 nM
5,IFNA2b_M44N_A168Q (from UniProt P01563 24-188) (ligand),20000 nM
6,IFNA2b_M44N_E155R (from UniProt P01563 24-188) (ligand),7660 nM
7,IFNA2b_L49P_V165G (from UniProt P01563 24-188) (ligand),34400 nM
8,IFNA2b_M44N_A168H (from UniProt P01563 24-188) (ligand),802 nM
9,IFNA2b_L49P_R167M (from UniProt P01563 24-188) (ligand),2380 nM
10,IFNA2b_L49P_V165R (from UniProt P01563 24-188) (ligand),8960 nM
11,IFNA2b_M44N_R167A (from UniProt P01563 24-188) (ligand),5780 nM
12,IFNA2b_L49P_R172E (from UniProt P01563 24-188) (ligand),47300 nM
13,IFNA2b_L49P_V165T (from UniProt P01563 24-188) (ligand),5950 nM
14,IFNA2b_L49P_V165F (from UniProt P01563 24-188) (ligand),22900 nM
15,IFNA2b_L49P_R172M (from UniProt P01563 24-188) (ligand),227 nM
16,IFNA2b_M44N_S159D (from UniProt P01563 24-188) (ligand),34500 nM
17,IFNA2b_M44N_K135G (from UniProt P01563 24-188) (ligand),416 nM

row,Substance,apparent Kd (pooled screen)
1,IFNA2b_L49P_E164D (from UniProt P01563 24-188) (ligand),75 nM
2,IFNA2b_L49P_R172I (from UniProt P01563 24-188) (ligand),310 nM
3,IFNA2b_M44N_A168N (from UniProt P01563 24-188) (ligand),1500 nM
4,IFNA2b_L49P_R172S (from UniProt P01563 24-188) (ligand),6190 nM
5,IFNA2b_L49P_R172Q (from UniProt P01563 24-188) (ligand),8550 nM
6,IFNA2b_L49P_R172W (from UniProt P01563 24-188) (ligand),9950 nM
7,IFNA2b_M44N_A168K (from UniProt P01563 24-188) (ligand),23300 nM
8,IFNA2b_M44N_S175E (from UniProt P01563 24-188) (ligand),484 nM
9,IFNA2b_L49P_K187Y (from UniProt P01563 24-188) (ligand),90 nM
10,IFNA2b_M44N_R167L (from UniProt P01563 24-188) (ligand),2260 nM
11,IFNA2b_L49P_R167S (from UniProt P01563 24-188) (ligand),65800 nM
12,IFNA2b_M44N_T150G (from UniProt P01563 24-188) (ligand),528 nM
13,IFNA2b_L49P_R167H (from UniProt P01563 24-188) (ligand),480 nM
14,IFNA2b_L49P_R172A (from UniProt P01563 24-188) (ligand),6870 nM
15,IFNA2b_L49P_K187L (from UniProt P01563 24-188) (ligand),85 nM
16,IFNA2b_L49P_L176P (from UniProt P01563 24-188) (ligand),69 nM
17,IFNA2b_L49P_N179G (from UniProt P01563 24-188) (ligand),84 nM

# Biological target: T1, mouse IFNAR2 (mouse)
# Test: AlphaSeq (yeast mating, Aga2 display)
row,apparent Kd (pooled screen),Substance
1,708 nM,IFNA2b_L49P_R167I (from UniProt P01563 24-188) (ligand)
2,591 nM,IFNA2b_M44N_A120T (from UniProt P01563 24-188) (ligand)
3,1950 nM,IFNA2b_L49P_R167L (from UniProt P01563 24-188) (ligand)
4,73 nM,IFNA2b_L49P_K156Q (from UniProt P01563 24-188) (ligand)
5,3000 nM,IFNA2b_L49P_R167T (from UniProt P01563 24-188) (ligand)
6,480 nM,IFNA2b_L49P_L140N (from UniProt P01563 24-188) (ligand)

# Second part, the substance before the results:
row,Substance,apparent Kd (pooled screen)
1,IFNA2b_M44N_E130M (from UniProt P01563 24-188) (ligand),825 nM
2,IFNA2b_M44N_V128G (from UniProt P01563 24-188) (ligand),472 nM
3,IFNA2b_L49P_A168D (from UniProt P01563 24-188) (ligand),586 nM
4,IFNA2b_L49P_R167V (from UniProt P01563 24-188) (ligand),1740 nM
5,IFNA2b_M44N_E188R (from UniProt P01563 24-187) (ligand),520 nM

# Biological target: T1, mouse IFNAR2 (mouse)
# Test: AlphaSeq, replicates
row,apparent Kd (pooled screen),Substance
1,20 nM,IFNA2_L49P (from UniProt P01563 24-188) (ligand)
